# Laboratory results taken from FireProtDB.
# Several values for one entry are separate records, joined by “and”; a condition that tells them apart may be missing. Identical values can stand only once.
# B1: Colicin-E1, P02978 (parent)
# chain: METAVAYYKDGVPYDDKGQVIITLLNGTPDGSGSGGGGGKGGSKSESSAAIHATAKWSTAQLKKTQAEQAARAKAAAEAQAKAKANRDALTQRLKDIVNEALRHNASRTPSATELAHANNAAMQAEDERLRLAKAEEKARKEAEAAEKAFQEAEQRRKEIEREKAETERQLKLAEAEEKRLAALSEEAKAVEIAQKKLSAAQSEVVKMDGEIKTLNSRLSSSIHARDAEMKTLAGKRNELAQASAKYKELDELVKKLSPRANDPLQNRPFFEATRRRVGAGKIREEKQKQVTASETRINRINADITQIQKAISQVSNNRNAGIARVHEAEENLKKAQNNLLNSQIKDAVDATVSFYQTLTEKYGEKYSKMAQELADKSKGKKIGNVNEALAAFEKYKDVLNKKFSKADRDAIFNALASVKYDDWAKHLDQFAKYLKITGHVSFGYDVVSDILKIKDTGDWKPLFLTLEKKAADAGVSYVVALLFSLLAGTTLGIWGIAIVTGILCSYIDKNKLNTINEVLGI
# B2: Phosphocarrier protein HPr, P08877 (parent)
# chain: MAQKTFKVTADSGIHARPATVLVQTASKYDADVNLEYNGKTVNLKSIMGVMSLGIAKGAEITISASGADENDALNALEETMKSEGLGE
# B3: Malate dehydrogenase, P80040 (parent)
# chain: MRKKISIIGAGFVGSTTAHWLAAKELGDIVLLDFVEGVPQGKALDLYEASPIEGFDVRVTGTNNYADTANSDVIVVTSGAPRKPGMSREDLIKVNADITRACISQAAPLSPNAVIIMVNNPLDAMTYLAAEVSGFPKERVIGQAGVLDAARYRTFIAMEAGVSVEDVQAMLMGGHGDEMVPLPRFSTISGIPVSEFIAPDRLAQIVERTRKGGGEIVNLLKTGSAYYAPAAATAQMVEAVLKDKKRVMPVAAYLTGQYGLNDIYFGVPVILGAGGVEKILELPLNEEEMALLNASAKAVRATLDTLKSL
# B4: N-(5'-phosphoribosyl)anthranilate isomerase, P00912 (parent)
# chain: MSVINFTGSSGPLVKVCGLQSTEAAECALDSDADLLGIICVPNRKRTIDPVIARKISSLVKAYKNSSGTPKYLVGVFRNQPKEDVLALVNDYGIDIVQLHGDESWQEYQEFLGLPVIKRLVFPKDCNILLSAASQKPHSFIPLFDSEAGGTGELLDWNSISDWVGRQESPESLHFMLAGGLTPENVGDALRLNGVIGVDVSGGVETNGVKDSNKIANFVKNAKK
# B5: Endo-1,4-beta-xylanase 2, P36217 (parent)
# chain: MVSFTSLLAGVAAISGVLAAPAAEVESVAVEKRQTIQPGTGYNNGYFYSYWNDGHGGVTYTNGPGGQFSVNWSNSGNFVGGKGWQPGTKNKVINFSGSYNPNGNSYLSVYGWSRNPLIEYYIVENFGTYNPSTGATKLGEVTSDGSVYDIYRTQRVNQPSIIGTATFYQYWSVRRNHRSSGSVNTANHFNAWAQQGLTLGTMDYQIVAVEGYFSSGSASITVS
# B6: Holocytochrome-c synthase, P06182 (parent)
# chain: MGWFWADQKTTGKDIGGAAVSSMSGCPVMHESSSSSPPSSECPVMQGDNDRINPLNNMPELAASKQPGQKMDLPVDRTISSIPKSPDSNEFWEYPSPQQMYNAMVRKGKIGGSGEVAEDAVESMVQVHNFLNEGCWQEVLEWEKPHTDESHVQPKLLKFMGKPGVLSPRARWMHLCGLLFPSHFSQELPFDRHDWIVLRGERKAEQQPPTFKEVRYVLDFYGGPDDENGMPTFHVDVRPALDSLDNAKDRMTRFLDRMISGPSSSSSAP
# B7: Phosphoglycerate kinase, P00560 (parent)
# chain: MSLSSKLSVQDLDLKDKRVFIRVDFNVPLDGKKITSNQRIVAALPTIKYVLEHHPRYVVLASHLGRPNGERNEKYSLAPVAKELQSLLGKDVTFLNDCVGPEVEAAVKASAPGSVILLENLRYHIEEEGSRKVDGQKVKASKEDVQKFRHELSSLADVYINDAFGTAHRAHSSMVGFDLPQRAAGFLLEKELKYFGKALENPTRPFLAILGGAKVADKIQLIDNLLDKVDSIIIGGGMAFTFKKVLENTEIGDSIFDKAGAEIVPKLMEKAKAKGVEVVLPVDFIIADAFSADANTKTVTDKEGIPAGWQGLDNGPESRKLFAATVAKAKTIVWNGPPGVFEFEKFAAGTKALLDEVVKSSAAGNTVIIGGGDTATVAKKYGVTDKISHVSTGGGASLELLEGKELPGVAFLSEKK
# B8: Alpha-lactalbumin, P00711 (parent)
# chain: MMSFVSLLLVGILFHATQAEQLTKCEVFRELKDLKGYGGVSLPEWVCTTFHTSGYDTQAIVQNNDSTEYGLFQINNKIWCKDDQNPHSSNICNISCDKFLDDDLTDDIMCVKKILDKVGINYWLAHKALCSEKLDQWLCEKL
# B9: Thioredoxin, P80579 (parent)
# chain: ATMTLTDANFQQAIQGDKPVLVDFWAAWCGPCRMMAPVLEEFAEAHADKVTVAKLNVDENPETTSQFGIMSIPTLILFKGGRPVKQLIGYQPKEQLEAQLADVLQ
# Variants of: B1
# Settings: Escherichia coli; pH 6; 22 °C; Urea; Fluorescence; dimethylglutaric acid 10 mM; NaCl 100 mM; reversible: yes; structure 2I88; whole UniProt chain shown
row,Variant,denaturant midpoint (higher = more stable) [M]
1,F413W,5.7

# Variants of: B2
# Settings: Bacillus subtilis (strain 168); pH 7; 30 °C; Urea; CD; Potassium phosphate 50 mM; reversible: yes; structure 2HPR; whole UniProt chain shown
Variant,ddG of mutation (higher = less stable) [kcal/mol],denaturant midpoint (higher = more stable) [M]
S46D,-0.74,4.63

# Same assay, conditions: Bacillus subtilis (strain 168); pH 7; 73.6 °C; Thermal; CD; Potassium phosphate 50 mM; reversible: yes; structure 2HPR; whole UniProt chain shown
row,Variant,ddG of mutation (higher = less stable) [kcal/mol]
1,S46D,-0.7

# Variants of: B3
# Settings: Chloroflexus aurantiacus (strain ATCC 29366 / DSM 635 / J-10-fl); pH 7.5; Thermal; CD; potassium phosphate 10 mM; reversible: No; structure 1GUY; whole UniProt chain shown
Variant,Tm [°C],"change of melting temperature, mutant - wild type (higher = more stable) [°C]"
T187C,82.8,15

# Variants of: B4
# Settings: Saccharomyces cerevisiae (strain ATCC 204508 / S288c); pH 6.5; 23 °C; GdnHCl; CD; Potassium phosphate 0.05 M; reversible: yes; whole UniProt chain shown
row,Variant,ddG of mutation (higher = less stable) [kcal/mol]
1,S212C,1

# Variants of: B5
# Settings: Hypocrea jecorina (strain ATCC 56765 / BCRC 32924 / NRRL 11460 / Rut C-30); pH 5; Thermal; DSC; citrate - phosphate buffer 50 mM; structure 1ENX; whole UniProt chain shown
Variant,Tm [°C],"change of melting temperature, mutant - wild type (higher = more stable) [°C]"
T35C T61C K91R,72.5,11.1

# Variants of: B6
# Settings: Saccharomyces cerevisiae (strain ATCC 204508 / S288c); pH 6; Thermal; Absorbance; Sodium phosphate 100 mM; reversible: yes; whole UniProt chain shown
Variant,Tm [°C],"change of melting temperature, mutant - wild type (higher = more stable) [°C]",heat capacity change of unfolding [kcal/mol/K],unfolding enthalpy (van 't Hoff) [kcal/mol]
N57I,63.7,17.2,2,109

# Variants of: B7
# Settings: Saccharomyces cerevisiae (strain ATCC 204508 / S288c); pH 6.2; 20 °C; Thermal; CD; potassium phosphate 20 mM; structure 3PGK; whole UniProt chain shown
row,Variant,unfolding free energy [kcal/mol]
1,W334F,5.16
2,W309F W334F Y123W,5.23
3,W309F,5.43

# Same assay, conditions: Saccharomyces cerevisiae (strain ATCC 204508 / S288c); pH 7.5; 22 °C; GdnHCl; CD; Tris 20 mM; structure 3PGK; whole UniProt chain shown
Variant,ddG of mutation (higher = less stable) [kcal/mol],denaturant midpoint (higher = more stable) [M],unfolding free energy [kcal/mol]
W334F,-2.2,0.64,10
W309Y,3.6,0.55,4.2

# Same assay, conditions: Saccharomyces cerevisiae (strain ATCC 204508 / S288c); pH 6.2; 20 °C; GdnHCl; CD; potassium phosphate 50 mM; structure 3PGK; whole UniProt chain shown
Variant,denaturant m value [kcal/mol/M],unfolding free energy [kcal/mol]
W309F W334F Y123W,14,5.71
W309F,18,10.3

# Same assay, conditions: Saccharomyces cerevisiae (strain ATCC 204508 / S288c); pH 6.5; 25 °C; GdnHCl; CD; Sodium phosphate 20 mM; reversible: yes; structure 3PGK; whole UniProt chain shown
Variant,ddG of mutation (higher = less stable) [kcal/mol],denaturant m value [kcal/mol/M],unfolding free energy [kcal/mol]
H389Q,0.84,6.08,2.99

# Variants of: B8
# Settings: Bos taurus; pH 8; Thermal; Fluorescence; HEPES 10 mM; CaCl2 1 mM; structure 1HFZ; whole UniProt chain shown
Variant,Tm [°C],"change of melting temperature, mutant - wild type (higher = more stable) [°C]"
D106N,31.4,6.8

# Variants of: B9
# Settings: Alicyclobacillus acidocaldarius subsp. acidocaldarius; pH 7; GdHCl; CD; Sodium phosphate 10 mM; reversible: yes; structure 1QUW; whole UniProt chain shown
row,Variant,denaturant midpoint (higher = more stable) [M]
1,R82E,2.7

# Same assay, conditions: Alicyclobacillus acidocaldarius subsp. acidocaldarius; pH 7; Thermal; CD; Sodium phosphate 10 mM; reversible: yes; structure 1QUW; whole UniProt chain shown
row,Variant,Tm
1,R82E,81.5 °C and 81.4 °C

# Same assay, conditions: Alicyclobacillus acidocaldarius subsp. acidocaldarius; pH 7; Urea; CD; Sodium phosphate 10 mM; reversible: yes; structure 1QUW; whole UniProt chain shown
row,Variant,denaturant midpoint (higher = more stable) [M]
1,R82E,5.5
